The text below walks through data of article PMC4227789 (Nucleic Acids Research, 2014).

The target of the assay is p53 DNA-binding domain (residues 92-312), recombinant untagged (Homo sapiens, UniProt P04637). Nature of the assay: ITC.
Chain of p53 DNA-binding domain (residues 92-312), recombinant untagged (P04637 92-312): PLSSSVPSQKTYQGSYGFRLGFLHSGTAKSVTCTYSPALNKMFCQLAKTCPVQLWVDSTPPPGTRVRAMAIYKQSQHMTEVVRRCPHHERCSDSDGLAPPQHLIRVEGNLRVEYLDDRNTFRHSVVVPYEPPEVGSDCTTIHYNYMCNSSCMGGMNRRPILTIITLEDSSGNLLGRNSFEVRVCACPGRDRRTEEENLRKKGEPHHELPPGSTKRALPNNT

B1: p53 DBD nanobody 139, recombinant V5-tagged (VHH)
VHH: QVQLQESGGGLVQAGGSLRLSCAASERTFSTYAMGWFRQAPGREREFLAQINWSGTTTYYAESVKDRTTISRDNAKNTVYLEMNNLNADDTGIYFCAAHPQRGWGSTLGWTYWGQGTQVTVSS
In the case of B1, the Kd was about 1000 nM and the “stoichiometry N” value worked out at 1.
